Results on 20 molecules are retold here after PMC8733265, “Microscale thermophoresis suggests a new model of regulation of cardiac myosin function via interaction with cardiac myosin-binding protein C” (The Journal of Biological Chemistry, 2021).

To fix the notation:
B3: recombinant human cardiac myosin tail domain, first 126 amino acids of myosin subfragment-2 (myosin S2Δ) (domain or fragment, UniProt P12883 838-963, looked up)
chain: PLLKSAEREKEMASMKEEFTRLKEALEKSEARRKELEEKMVSLLQEKNDLQLQVQAEQDNLADAEERCDQLIKNKIQLEAKVKEMNERLEDEEEMNAELTAKKRKLEDECSELKRDIDDLELTLAK
modifications: Alexa 647-NHS label where it was the labelled partner; unlabelled where it was titrated
notes: human cardiac (β) myosin heavy chain, first 126 amino acids of subfragment-2; also called myosin tails; source: E. coli BL21(DE3)-RIPL, purified (HisTrapFF, TEV, ion exchange); not shown: His tag, N-terminal, cleaved

For assay [1], the target named is bovine β-cardiac myosin S1 (bovine) (UniProt Q9BE39). Kind of assay: MST; Monolith NT.115; 100 nmol/l Alexa647-labelled protein fixed, partner titrated; 20 mmol/l Mops pH 7, 1 mmol/l MgCl2, 50 mmol/l KCl, 1 mmol/l DTT, 0.05% Tween-20.
In assay [2] the target is recombinant human cardiac myosin tail domain, first 126 amino acids of myosin subfragment-2 (myosin S2Δ) (human) (UniProt P12883). Described as above.
The target of assay [3] is bovine β-cardiac myosin S1 (bovine) (UniProt Q9BE39). Kind of assay: MST; competition: C5C7 titrated into a mixture of Alexa647-labelled myosin S1 and C2C4.
For assay [4], the target named is bovine β-cardiac myosin S1 myosin S1 (head domain) (UniProt Q9BE39). Briefly: microscale thermophoresis titration. Conditions: reference: unphosphorylated C0C2.
For assay [5], the target named is human cardiac myosin tail domain (myosin S2Δ; also the heavy-chain part of miniHMM) miniHMM heavy-chain part containing myosin S2Δ (UniProt P12883). Kind of assay: microscale thermophoresis titration. Conditions: reference: unphosphorylated C0C2. Background: In MST a laser heats a spot of the sample, and binding alters the fluorescence response.
The target is the same in assay [6]. Briefly: microscale thermophoresis titration. Conditions: reference: unphosphorylated C0C2. The source holds these as a separate data set.
Assay [7] has as its target cMyBP-C (cardiac myosin-binding protein C) C0C2 (C0-P/A-C1-m-C2) (UniProt Q14896). Briefly: microscale thermophoresis titration. Conditions: reference: unphosphorylated miniHMM.
Assay [8] has the same target. Kind of assay: microscale thermophoresis titration. Conditions: reference: unphosphorylated miniHMM. This is another data set of the same source.
For assay [9], the target named is miniHMM, recombinant fragment of human cardiac myosin containing the myosin S2Δ tail domain bound to two RLCs (human), P12883. Kind of assay: MST; as the other MST titrations but pH adjusted to 6.2 for the isolated m-motif; 100 nmol/l Alexa647-labelled protein fixed.
For assay [10], the target named is B3. Described as above. Conditions: both partners purified.
The target in assay [11] is T1, bovine β-cardiac myosin S1 (bovine, UniProt Q9BE39 1-1935; P85100 1-199; Q3SZE5 1-166, Alexa 647-NHS label (chain and site not stated)).
T1 construct: β-cardiac myosin heavy chain (MHC), bovine, the part that lies in subfragment 1; essential light chain (ELC) of bovine cardiac myosin, labelled on the gel of isolated S1; regulatory light chain (RLC) of bovine cardiac myosin, labelled on the gel of isolated S1; the text says that an intact RLC neck region is not present in this S1; Used at 100 nmol/l as the Alexa647-labelled partner in MST; also …
The description is as above. Conditions: both partners purified.

Assay [12] deals with T1, bovine β-cardiac myosin S1. Briefly: MST; Monolith NT.115; 100 nmol/l Alexa647-labelled protein fixed, partner titrated; 20 mmol/l Mops pH 7, 1 mmol/l MgCl2, 50 mmol/l KCl, 1 mmol/l DTT, 0.05% Tween-20.
In a further assay the target is T2, C5C7 segment of cMyBP-C (UniProt Q14896 645-967).
T2 construct: also called C5–C6–C7; wildtype C5C7; source: E. coli BL21(DE3)-RIPL, purified (HisTrapFF, TEV, ion exchange); not shown: His tag, N-terminal, cleaved
T2 sequence (looked up): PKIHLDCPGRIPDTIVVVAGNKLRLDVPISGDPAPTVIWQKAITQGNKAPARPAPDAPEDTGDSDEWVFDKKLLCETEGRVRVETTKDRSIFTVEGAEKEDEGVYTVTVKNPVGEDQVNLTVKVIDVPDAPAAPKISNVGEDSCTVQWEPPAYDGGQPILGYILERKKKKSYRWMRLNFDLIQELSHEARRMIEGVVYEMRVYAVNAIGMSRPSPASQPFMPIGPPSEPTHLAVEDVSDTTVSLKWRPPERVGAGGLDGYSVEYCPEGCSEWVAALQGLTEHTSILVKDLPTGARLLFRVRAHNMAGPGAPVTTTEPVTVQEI
Described as above. Conditions: both partners purified.

The next assay concerns the target T3, C0C1 fragment of cMyBP-C (UniProt Q14896 1-258).
T3 construct: also called C0-P/A-C1; source: E. coli BL21(DE3)-RIPL, purified (HisTrapFF, TEV, ion exchange); not shown: His tag, N-terminal, cleaved
Described as above. Conditions: both partners purified.

Chain of bovine β-cardiac myosin S1 (bovine) (Q9BE39 whole entry, chain 1 of 2, the tested form may be a part): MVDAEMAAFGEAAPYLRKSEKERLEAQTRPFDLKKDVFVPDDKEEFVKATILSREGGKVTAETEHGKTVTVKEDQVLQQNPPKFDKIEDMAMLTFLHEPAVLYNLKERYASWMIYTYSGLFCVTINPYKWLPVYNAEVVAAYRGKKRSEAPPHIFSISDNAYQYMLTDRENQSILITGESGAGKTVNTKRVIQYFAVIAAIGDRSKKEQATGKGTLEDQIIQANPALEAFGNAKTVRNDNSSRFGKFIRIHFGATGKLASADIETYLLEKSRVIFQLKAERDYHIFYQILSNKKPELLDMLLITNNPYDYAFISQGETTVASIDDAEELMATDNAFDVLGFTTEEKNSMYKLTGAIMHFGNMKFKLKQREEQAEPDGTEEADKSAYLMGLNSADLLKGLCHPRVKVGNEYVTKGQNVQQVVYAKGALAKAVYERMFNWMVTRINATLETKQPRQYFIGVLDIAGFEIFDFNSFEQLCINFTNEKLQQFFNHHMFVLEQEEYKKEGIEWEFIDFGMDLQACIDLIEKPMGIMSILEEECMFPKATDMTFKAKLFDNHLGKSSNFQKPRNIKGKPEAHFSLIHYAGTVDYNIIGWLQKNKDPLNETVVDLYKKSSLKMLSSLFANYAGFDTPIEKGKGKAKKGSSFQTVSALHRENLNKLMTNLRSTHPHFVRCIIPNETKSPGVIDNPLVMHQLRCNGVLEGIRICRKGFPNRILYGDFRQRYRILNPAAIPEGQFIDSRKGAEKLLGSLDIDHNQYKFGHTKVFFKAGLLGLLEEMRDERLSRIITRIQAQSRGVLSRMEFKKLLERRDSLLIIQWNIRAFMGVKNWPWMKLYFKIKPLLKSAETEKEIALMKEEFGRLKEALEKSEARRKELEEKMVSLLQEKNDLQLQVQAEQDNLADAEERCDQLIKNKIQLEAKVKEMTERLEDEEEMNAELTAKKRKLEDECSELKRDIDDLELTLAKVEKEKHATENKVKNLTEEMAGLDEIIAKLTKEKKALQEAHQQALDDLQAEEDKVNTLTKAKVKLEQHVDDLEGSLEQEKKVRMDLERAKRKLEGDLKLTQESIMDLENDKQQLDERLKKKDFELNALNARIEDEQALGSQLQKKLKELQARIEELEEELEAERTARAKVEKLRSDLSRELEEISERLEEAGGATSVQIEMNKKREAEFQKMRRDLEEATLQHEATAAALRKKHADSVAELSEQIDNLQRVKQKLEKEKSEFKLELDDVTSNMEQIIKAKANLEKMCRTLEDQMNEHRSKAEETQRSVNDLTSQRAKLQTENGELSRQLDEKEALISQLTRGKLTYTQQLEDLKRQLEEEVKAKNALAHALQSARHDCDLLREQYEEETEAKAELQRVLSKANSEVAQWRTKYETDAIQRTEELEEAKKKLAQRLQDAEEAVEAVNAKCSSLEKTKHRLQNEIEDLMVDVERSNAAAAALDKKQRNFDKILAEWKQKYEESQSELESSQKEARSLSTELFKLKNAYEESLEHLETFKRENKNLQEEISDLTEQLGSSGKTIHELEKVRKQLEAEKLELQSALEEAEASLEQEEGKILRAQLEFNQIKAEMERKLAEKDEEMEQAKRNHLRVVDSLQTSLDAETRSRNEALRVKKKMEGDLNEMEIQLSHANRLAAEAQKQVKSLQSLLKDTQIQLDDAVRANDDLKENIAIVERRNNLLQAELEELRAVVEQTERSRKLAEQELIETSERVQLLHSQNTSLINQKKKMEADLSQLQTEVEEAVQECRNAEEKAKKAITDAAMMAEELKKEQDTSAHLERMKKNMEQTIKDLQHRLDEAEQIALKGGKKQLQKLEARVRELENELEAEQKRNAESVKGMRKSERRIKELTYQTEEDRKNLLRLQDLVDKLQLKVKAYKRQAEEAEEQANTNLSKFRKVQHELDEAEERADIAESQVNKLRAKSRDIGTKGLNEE
Chain of bovine β-cardiac myosin S1 (bovine) (P85100 whole entry, chain 2 of 2, further chain, the tested form may be a part): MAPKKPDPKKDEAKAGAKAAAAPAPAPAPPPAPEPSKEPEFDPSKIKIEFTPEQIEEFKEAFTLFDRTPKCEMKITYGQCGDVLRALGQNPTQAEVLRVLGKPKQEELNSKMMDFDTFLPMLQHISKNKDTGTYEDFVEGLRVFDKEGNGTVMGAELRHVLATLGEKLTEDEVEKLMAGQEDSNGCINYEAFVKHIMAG
T1 sequence (Q9BE39 whole entry, chain 1 of 2, the tested form may be a part): as the sequence (Q9BE39 whole entry, chain 1 of 2, the tested form may be a part) above
T1 sequence (P85100 whole entry, chain 2 of 2, the tested form may be a part): as the sequence (P85100 whole entry, chain 2 of 2, further chain, the tested form may be a part) above
Chain of miniHMM, recombinant fragment of human cardiac myosin containing the myosin S2Δ tail domain bound to two RLCs (human), P12883 (P12883 whole entry, stated change not applied, the tested form may be a part): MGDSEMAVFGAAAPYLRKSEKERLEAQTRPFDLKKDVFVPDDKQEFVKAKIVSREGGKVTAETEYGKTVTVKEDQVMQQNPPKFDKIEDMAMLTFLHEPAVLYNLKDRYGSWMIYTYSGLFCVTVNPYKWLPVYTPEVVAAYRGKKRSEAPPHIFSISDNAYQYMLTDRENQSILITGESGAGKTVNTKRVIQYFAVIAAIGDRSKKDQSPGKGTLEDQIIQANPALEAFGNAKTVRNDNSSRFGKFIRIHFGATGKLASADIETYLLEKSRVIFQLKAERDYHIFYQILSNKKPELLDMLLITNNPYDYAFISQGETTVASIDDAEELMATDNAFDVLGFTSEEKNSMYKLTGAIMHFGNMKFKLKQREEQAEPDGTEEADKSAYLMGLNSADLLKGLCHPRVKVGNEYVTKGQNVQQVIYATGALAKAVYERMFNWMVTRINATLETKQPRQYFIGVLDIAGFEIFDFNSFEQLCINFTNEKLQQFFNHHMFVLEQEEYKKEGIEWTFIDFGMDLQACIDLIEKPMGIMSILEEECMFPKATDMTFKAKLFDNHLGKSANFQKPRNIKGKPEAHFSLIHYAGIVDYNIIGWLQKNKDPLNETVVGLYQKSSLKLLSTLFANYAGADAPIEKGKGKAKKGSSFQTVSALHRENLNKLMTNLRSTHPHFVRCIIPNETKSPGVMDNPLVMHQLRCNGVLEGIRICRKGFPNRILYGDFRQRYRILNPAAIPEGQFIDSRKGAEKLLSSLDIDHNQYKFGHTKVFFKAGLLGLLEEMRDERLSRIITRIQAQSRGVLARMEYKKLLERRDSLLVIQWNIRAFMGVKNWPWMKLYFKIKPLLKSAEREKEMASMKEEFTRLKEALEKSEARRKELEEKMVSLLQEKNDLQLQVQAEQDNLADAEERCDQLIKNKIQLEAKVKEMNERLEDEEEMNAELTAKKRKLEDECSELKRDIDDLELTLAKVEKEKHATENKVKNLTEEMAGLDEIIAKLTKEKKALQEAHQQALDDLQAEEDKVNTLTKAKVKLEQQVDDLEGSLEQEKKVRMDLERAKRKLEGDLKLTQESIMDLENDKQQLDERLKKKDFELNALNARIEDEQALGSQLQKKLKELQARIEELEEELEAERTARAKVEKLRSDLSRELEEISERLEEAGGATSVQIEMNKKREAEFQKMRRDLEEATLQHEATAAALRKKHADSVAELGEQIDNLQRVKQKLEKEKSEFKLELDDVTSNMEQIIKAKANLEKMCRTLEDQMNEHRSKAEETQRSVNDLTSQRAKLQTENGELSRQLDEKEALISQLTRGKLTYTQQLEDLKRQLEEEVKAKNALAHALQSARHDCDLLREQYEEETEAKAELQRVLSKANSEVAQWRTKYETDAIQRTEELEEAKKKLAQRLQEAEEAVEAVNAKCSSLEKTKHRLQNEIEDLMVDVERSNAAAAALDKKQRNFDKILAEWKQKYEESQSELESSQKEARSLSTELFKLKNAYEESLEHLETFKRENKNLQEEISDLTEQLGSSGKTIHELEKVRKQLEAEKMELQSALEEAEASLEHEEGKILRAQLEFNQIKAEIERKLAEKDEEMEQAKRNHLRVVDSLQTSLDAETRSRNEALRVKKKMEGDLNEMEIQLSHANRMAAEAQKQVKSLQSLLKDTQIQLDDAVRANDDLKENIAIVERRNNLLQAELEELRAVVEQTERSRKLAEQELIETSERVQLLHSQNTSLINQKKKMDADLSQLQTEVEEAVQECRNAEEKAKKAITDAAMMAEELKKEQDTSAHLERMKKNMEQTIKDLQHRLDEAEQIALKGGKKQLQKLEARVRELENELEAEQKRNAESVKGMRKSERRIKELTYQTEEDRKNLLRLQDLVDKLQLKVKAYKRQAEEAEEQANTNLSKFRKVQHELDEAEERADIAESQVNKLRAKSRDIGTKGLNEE
T3 sequence (Q14896 1-258): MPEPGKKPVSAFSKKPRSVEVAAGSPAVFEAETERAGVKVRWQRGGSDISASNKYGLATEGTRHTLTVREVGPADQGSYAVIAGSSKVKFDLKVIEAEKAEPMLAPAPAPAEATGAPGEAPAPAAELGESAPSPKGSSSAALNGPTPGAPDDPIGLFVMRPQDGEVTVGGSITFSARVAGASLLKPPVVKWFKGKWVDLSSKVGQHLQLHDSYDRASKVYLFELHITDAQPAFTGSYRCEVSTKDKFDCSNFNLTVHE

Regarding “C0C1 fragment of cMyBP-C (from UniProt Q14896 1-258) (domain or fragment)”, the Kd in assay [1] was 3.8 µM.

With “C0C2, cMyBP-C spanning domains C0 to C2 (from UniProt Q14896 1-452) (domain or fragment)”, the Kd was found to be 6.5 µM in assay [2] and 3.4 µM in [1].

In assay [1], “C0C2-3P, tris-phosphorylated C0C2 (from UniProt Q14896 1-452) (domain or fragment)” returned a Kd of 2.2 µM.

Molecule “C0C2-truncated cMyBP-C (ΔC0C2-cMyBP-C) (from UniProt Q14896 453-1274) (domain or fragment)” yielded an equilibrium dissociation constant (Kd) in [1] of 0.51 µM.

“C2C4 segment of cMyBP-C (from UniProt Q14896 362-633) (domain or fragment)” returned a Kd in assay [1] of 0.38 µM.

“C5C7 segment of cMyBP-C (from UniProt Q14896 645-967) (domain or fragment)” showed a dissociation constant Kd in assay [1] of 0.77 µM. Moreover, in assay [3], the EC50 worked out at 3.8 µM.

In the case of “C5C7-N755K (from UniProt Q14896 1-1274) (domain or fragment)”, the dissociation constant (Kd) is 73.9 µM in assay [2] and 0.43 µM in [1].

With “C5C7-R820Q (from UniProt Q14896 1-1274) (domain or fragment)”, the values for the Kd in [2] and in assay [1] were 59.1 µM and 1.3 µM, respectively.

In the case of “C5C7-R943Q (from UniProt Q14896 1-1274) (domain or fragment)”, the Kd in assay [2] worked out at 32.6 µM; in assay [1] it was 0.61 µM.

Consider “cMyBP-C (cardiac myosin-binding protein C) C0C2 (C0-P/A-C1-m-C2) (from UniProt Q14896) PKA tris-phosphorylated C0C2-3P, IEC purified”, for which the KD result was “same; reference 3.4 ± 0.3” in assay [4], “weaker; reference 3.4 ± 0.1” in assay [5] and “weaker; reference 2.7 ± 0.1” in assay [6].

Turning to “domain C0 of cMyBP-C (from UniProt Q14896 1-101) (domain or fragment)”, in assay [1], the Kd was 91.3 µM.

In assay [1], “domain C1 of cMyBP-C (from UniProt Q14896 151-258) (domain or fragment)” returned a Kd of 3.8 µM.

For the molecule “domain C2 of cMyBP-C (from UniProt Q14896 362-452) (domain or fragment)”, in assay [1], the Kd is 42.3 µM.

Molecule “domain C3 of cMyBP-C (from UniProt Q14896 453-543) (domain or fragment)” had a Kd in [1] of 25 µM.

The molecule “domain C4 of cMyBP-C (from UniProt Q14896 544-633) (domain or fragment)” displayed a Kd in assay [1] of 2.5 µM.

Consider “full-length cardiac myosin-binding protein C (cMyBP-C) (from UniProt Q14896 1-1274) (natural protein)”, for which the Kd in assay [1] turned out to be 0.3 µM.

As for “myosin regulatory light chain (RLC) in miniHMM (from UniProt P10916) cMLCK-phosphorylated miniHMM”, the results for the KD result in assay [7] and in [8] were “same; reference 3.4 ± 0.1” and “stronger; reference 9.7 ± 0.5”, respectively.

B1: isolated m-motif of cMyBP-C (domain or fragment)
chain: HEAMGTGDLDLLSAFRRTSLAGGGRRISDSHEDTGILDFSSLLKKRDSFRTPRDSKLEAPAEEDVWEILRQAPPSEYERIAFQYGVTDLRGMLKRLKGMRRDEKK
modifications: here or on the partner: Unphosphorylated (bacterial expression). Limits taken as the interval between the annotated C1 (153-256) and C2 (362-452) domains. / Limits not printed. C-terminus from S2Δ as the first 126 residues o
As for B1, the dissociation constant (Kd) in assay [9] is 49.7 µM.

B2: isolated m-motif of cMyBP-C (domain or fragment)
chain: HEAMGTGDLDLLSAFRRTSLAGGGRRISDSHEDTGILDFSSLLKKRDSFRTPRDSKLEAPAEEDVWEILRQAPPSEYERIAFQYGVTDLRGMLKRLKGMRRDEKK
On to B2, for which the Kd was determined as 41.4 µM in [10] and 183 µM in assay [11].

For B3, the Kd worked out at 0.6 µM in assay [12], 25.8 µM with C5C7 segment of cMyBP-C and 199 µM with C0C1 fragment of cMyBP-C.

The Kd is the equilibrium constant for the complex coming apart. Usually EC50 stands for the concentration that produces a half-maximal response.
